From EP4650366A1 (Beijing Tuo Jie Biopharmaceutical Co. Ltd., dated 2025)
Changes are numbered by the printed parent chain. Numbers in names are those of the source. Like-named read-outs stand apart in the source and are kept apart here.

B1: SL2-2 (antibody, human IgG4 S228P, kappa, V domains shown)
VH: not shown
VL: DIQMTQSPSSLSASVGDRVTITCRASQFISDYLNWYQQKPGKAPKLLIYTASYLDSGVPSRFSGSGSGTDFTLTISSLQPEDFATYYCQQSYSTPLTFGGGTKLEIKR
notes: Human IgG4-S228P/kappa, H27 heavy chain
B2: SL2-22 (antibody, human IgG4 S228P, kappa, V domains shown)
VH: not shown
VL: B1 VL with F28S
notes: Human IgG4-S228P/kappa, H27 heavy chain; also called TGFβ1 monoclonal antibody SL2-22; anti-human TGFβ1 antibody SL2-22
B3: SL2-12 (antibody, human IgG4 S228P, kappa, V domains shown)
VH: not shown
VL: B1 VL with F28Y, T50S
notes: as for B1
B4: SL2-9 (antibody, human IgG4 S228P, kappa, V domains shown)
VH: not shown
VL: B1 VL with D31P, T50A, Y53E, D55E
notes: as for B1
B5: SL2-19 (antibody, human IgG4 S228P, kappa, V domains shown)
VH: not shown
VL: B1 VL with F28A, D31P, T50A, Y53E, D55E
notes: as for B1
B6: Ab6 (antibody, V domains shown)
VH: QVQLVESGGGVVQPGRSLRLSCAASGFAFSSYGMHWVRQAPGKGLEWVAVISYDGNNKYYADSVKGRFTISRDNSKNTLYLQMNSLRAEDTAVYYCARDLLVRFLEWSHKYGMDVWGQGTTVTVSS
VL: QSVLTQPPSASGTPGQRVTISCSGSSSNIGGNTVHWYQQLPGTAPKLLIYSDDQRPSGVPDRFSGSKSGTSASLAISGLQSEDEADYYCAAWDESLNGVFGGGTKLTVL

How the values were obtained:
Human GARP-TGFβ1 complex [1] = biological target: T1, Human GARP-TGFβ1 complex (human, UniProt Q14392 20-627; P01137 30-390); test: SPR (Biacore T200), method of Example 4
T1 construct: Soluble recombinant complex, co-expressed in ExpiCHO cells and purified; also called human GARP/TGFβ1 protein

Human GARP-TGFβ1 complex [2] = biological target: T1, Human GARP-TGFβ1 complex; test: SPR, method of Example 4; reference H27; antigen not given, taken as the human GARP-TGFβ1 complex as in Table 11
Human GARP-TGFβ1 complex [3] = biological target: T1, Human GARP-TGFβ1 complex; test: SPR (Biacore T200), method of Example 4; remark: listed apart in the source
Mouse GARP-TGFβ1 complex = biological target: T2, Mouse GARP-TGFβ1 complex (mouse, UniProt G3XA59 18-628; P04202 30-390); test: SPR (Biacore T200), method of Example 4
T2 construct: Soluble recombinant complex, co-expressed in ExpiCHO cells and purified; also called Murine GARP-TGFβ1 complex

[4] = biological target: T3, human TGFβ1 expressed by transfected cells (human, UniProt P01137 30-390); test: flow cytometry on transfected HEK293E cells, 10 nM antibody
T3 construct: whole, on cells; also called human pro-TGFβ1

[5] = biological target: T4, mouse TGFβ1 expressed by transfected cells (mouse, UniProt P04202 30-390); test: as above
T4 construct: whole, on cells; also called mTGFβ1; murine TGFβ1

[6] = biological target: T5, human GARP-TGFβ1 complex expressed by transfected cells (human, UniProt P01137 30-390; Q14392 20-662); test: as above
T5 construct: whole, on cells; also called TGFβ1-GARP complex; TGFβ1 + GARP

[7] = biological target: T6, mouse GARP-TGFβ1 complex expressed by transfected cells (mouse, UniProt P04202 30-390; G3XA59 18-663); test: as above
T6 construct: whole, on cells; also called mTGFβ1-mGARP complex; mTGFβ1 + mGARP

[8] = biological target: T7, human TGFβ2 expressed by transfected HEK293E cells (human, UniProt P61812 21-414); test: flow cytometry on transfected HEK293E cells, FITC anti-human Fc
T7 construct: whole, on cells
T7 sequence (looked up): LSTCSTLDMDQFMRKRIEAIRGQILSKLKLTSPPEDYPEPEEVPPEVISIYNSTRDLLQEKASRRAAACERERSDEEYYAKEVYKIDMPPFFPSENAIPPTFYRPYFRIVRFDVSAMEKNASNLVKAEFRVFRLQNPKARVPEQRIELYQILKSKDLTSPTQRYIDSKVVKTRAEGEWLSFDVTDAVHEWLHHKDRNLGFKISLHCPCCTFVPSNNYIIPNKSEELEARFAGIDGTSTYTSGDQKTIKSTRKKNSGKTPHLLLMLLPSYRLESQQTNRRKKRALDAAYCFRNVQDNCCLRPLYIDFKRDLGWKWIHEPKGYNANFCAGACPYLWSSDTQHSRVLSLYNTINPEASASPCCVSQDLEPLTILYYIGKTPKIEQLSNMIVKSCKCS

[9] = biological target: T8, human GARP-TGFβ2 complex expressed by transfected HEK293E cells (human, UniProt P61812 21-414; Q14392 20-662); test: as above
T8 construct: whole, on cells; also called TGFβ2-GARP complex; TGFβ2 + GARP
T8 sequence (looked up) 1: T7 sequence (looked up)
T8 sequence (looked up) 2: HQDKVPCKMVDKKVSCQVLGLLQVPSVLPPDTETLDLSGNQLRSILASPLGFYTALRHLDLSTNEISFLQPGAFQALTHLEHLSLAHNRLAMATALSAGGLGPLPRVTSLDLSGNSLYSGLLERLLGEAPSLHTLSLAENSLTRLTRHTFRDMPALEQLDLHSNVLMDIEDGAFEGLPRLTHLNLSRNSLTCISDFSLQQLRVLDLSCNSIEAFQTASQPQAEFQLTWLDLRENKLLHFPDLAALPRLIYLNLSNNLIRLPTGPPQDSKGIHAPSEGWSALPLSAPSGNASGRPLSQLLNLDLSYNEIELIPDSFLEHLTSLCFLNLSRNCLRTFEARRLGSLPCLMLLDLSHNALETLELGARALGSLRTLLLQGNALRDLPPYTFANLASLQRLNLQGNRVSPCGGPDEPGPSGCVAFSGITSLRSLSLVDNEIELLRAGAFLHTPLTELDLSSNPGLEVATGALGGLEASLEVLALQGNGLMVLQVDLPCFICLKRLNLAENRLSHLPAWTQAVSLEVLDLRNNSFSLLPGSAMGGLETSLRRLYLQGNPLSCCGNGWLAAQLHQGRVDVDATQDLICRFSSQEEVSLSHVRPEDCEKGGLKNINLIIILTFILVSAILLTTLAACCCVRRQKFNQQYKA

T2 sequence (G3XA59 other isoform, or with tags, fused parts or gaps limits assumed, chain 1 of 2): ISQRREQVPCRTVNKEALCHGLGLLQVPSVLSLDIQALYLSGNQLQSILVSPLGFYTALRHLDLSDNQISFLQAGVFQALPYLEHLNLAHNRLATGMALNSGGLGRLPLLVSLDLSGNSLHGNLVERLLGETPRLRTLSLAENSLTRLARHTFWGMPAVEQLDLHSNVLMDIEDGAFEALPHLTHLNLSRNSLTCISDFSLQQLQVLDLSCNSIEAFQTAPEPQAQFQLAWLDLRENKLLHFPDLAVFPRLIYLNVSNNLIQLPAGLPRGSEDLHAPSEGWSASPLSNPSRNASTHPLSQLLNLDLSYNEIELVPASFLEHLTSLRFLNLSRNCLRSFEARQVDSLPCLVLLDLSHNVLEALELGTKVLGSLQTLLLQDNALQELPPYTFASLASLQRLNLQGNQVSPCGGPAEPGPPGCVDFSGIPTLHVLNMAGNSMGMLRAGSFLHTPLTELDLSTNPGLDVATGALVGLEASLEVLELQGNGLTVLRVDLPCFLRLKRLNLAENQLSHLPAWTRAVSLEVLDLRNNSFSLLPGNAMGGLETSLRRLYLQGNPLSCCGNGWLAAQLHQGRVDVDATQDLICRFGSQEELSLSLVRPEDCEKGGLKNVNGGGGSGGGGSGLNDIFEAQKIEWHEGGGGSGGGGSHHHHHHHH
T2 sequence (P04202 30-390 limits assumed, chain 2 of 2): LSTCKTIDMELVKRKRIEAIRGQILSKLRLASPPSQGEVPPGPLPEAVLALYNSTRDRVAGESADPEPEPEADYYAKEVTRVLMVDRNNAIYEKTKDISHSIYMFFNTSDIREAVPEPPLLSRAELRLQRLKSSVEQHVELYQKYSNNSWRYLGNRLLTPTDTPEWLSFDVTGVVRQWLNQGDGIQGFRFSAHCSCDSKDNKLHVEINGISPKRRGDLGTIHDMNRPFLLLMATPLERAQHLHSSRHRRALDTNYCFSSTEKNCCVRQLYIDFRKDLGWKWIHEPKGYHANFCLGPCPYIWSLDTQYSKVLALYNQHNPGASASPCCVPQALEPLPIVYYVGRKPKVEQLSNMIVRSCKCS
T1 sequence (P01137 30-390 limits assumed, one chain of several): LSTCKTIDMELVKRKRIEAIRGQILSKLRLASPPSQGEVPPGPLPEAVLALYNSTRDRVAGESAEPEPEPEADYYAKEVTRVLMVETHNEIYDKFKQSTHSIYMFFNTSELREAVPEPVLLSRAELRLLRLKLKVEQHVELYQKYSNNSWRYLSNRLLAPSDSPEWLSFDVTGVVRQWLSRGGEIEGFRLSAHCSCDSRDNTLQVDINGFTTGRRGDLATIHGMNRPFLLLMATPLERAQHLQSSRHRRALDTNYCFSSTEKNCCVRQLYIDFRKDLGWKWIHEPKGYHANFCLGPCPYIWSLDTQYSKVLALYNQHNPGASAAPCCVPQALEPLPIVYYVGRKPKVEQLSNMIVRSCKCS
T3 sequence (P01137 30-390): as the sequence (P01137 30-390 limits assumed, one chain of several) above
T5 sequence (P01137 30-390, one chain of several): as the sequence (P01137 30-390 limits assumed, one chain of several) above
T4 sequence (P04202 30-390): as the sequence (P04202 30-390 limits assumed, chain 2 of 2) above
T6 sequence (P04202 30-390, chain 1 of 2): as the sequence (P04202 30-390 limits assumed, chain 2 of 2) above
T6 sequence (G3XA59 18-663, chain 2 of 2): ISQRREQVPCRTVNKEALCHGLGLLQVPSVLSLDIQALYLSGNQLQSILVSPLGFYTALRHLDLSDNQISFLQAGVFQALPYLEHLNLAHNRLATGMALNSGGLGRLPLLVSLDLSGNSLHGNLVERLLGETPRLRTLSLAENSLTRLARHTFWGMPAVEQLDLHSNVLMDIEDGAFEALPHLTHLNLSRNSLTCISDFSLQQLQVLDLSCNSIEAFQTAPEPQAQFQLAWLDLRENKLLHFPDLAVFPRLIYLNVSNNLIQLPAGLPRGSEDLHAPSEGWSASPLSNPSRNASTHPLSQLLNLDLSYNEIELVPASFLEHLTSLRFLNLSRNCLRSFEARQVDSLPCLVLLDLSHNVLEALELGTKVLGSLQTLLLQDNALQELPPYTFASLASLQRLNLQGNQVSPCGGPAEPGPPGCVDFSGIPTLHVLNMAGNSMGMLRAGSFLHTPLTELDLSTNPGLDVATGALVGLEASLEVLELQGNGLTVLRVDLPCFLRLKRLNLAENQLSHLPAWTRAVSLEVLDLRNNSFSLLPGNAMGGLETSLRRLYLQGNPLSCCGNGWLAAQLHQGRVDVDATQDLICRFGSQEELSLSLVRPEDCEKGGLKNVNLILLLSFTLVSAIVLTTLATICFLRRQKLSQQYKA

Binder	Kd (Human GARP-TGFβ1 complex [1])	koff (Human GARP-TGFβ1 complex [1])	kon (Human GARP-TGFβ1 complex [1])	fold affinity over H27 (Human GARP-TGFβ1 complex [2])	Kd (Human GARP-TGFβ1 complex [3])	koff (Human GARP-TGFβ1 complex [3])	kon (Human GARP-TGFβ1 complex [3])	Kd (Mouse GARP-TGFβ1 complex)	koff (Mouse GARP-TGFβ1 complex)	kon (Mouse GARP-TGFβ1 complex)	binding result [4]	binding result [5]	binding result [6]	binding result [7]	binding result [8]	binding result [9]
B1	0.135 nM	5.24e-05 s⁻¹	387000 M⁻¹ s⁻¹	5 fold	–	–	–	–	–	–	–	–	–	–	–	–
B2	0.161 nM	6.08e-05 s⁻¹	379000 M⁻¹ s⁻¹	5 fold	0.254 nM	9.5e-05 s⁻¹	375000 M⁻¹ s⁻¹	0.228 nM	8.86e-05 s⁻¹	389000 M⁻¹ s⁻¹	binds	binds	binds	binds	no binding (tested: 10 nM)	no binding (tested: 10 nM)
B3	0.266 nM	8.51e-05 s⁻¹	320000 M⁻¹ s⁻¹	5 fold	–	–	–	–	–	–	–	–	–	–	–	–
B4	0.475 nM	8.54e-05 s⁻¹	180000 M⁻¹ s⁻¹	5 fold	–	–	–	–	–	–	–	–	–	–	–	–
B5	0.362 nM	6.95e-05 s⁻¹	192000 M⁻¹ s⁻¹	5 fold	–	–	–	–	–	–	–	–	–	–	–	–
B6	–	–	–	–	0.332 nM	0.000138 s⁻¹	417000 M⁻¹ s⁻¹	0.226 nM	0.000106 s⁻¹	469000 M⁻¹ s⁻¹	–	–	–	–	–	–
